One may read the Kd as the free concentration of one partner at which half of the binding sites on the other are occupied at equilibrium, for simple one-to-one binding.

The record followed here is paper PMC3906126 (Biochemistry, 2013).

Holding throughout (experiment): ITC
The target of assay [1] is T1, WW1 domain of WWOX (residues 16–50) (human, UniProt Q9NZC7 16-50).
T1 chain (looked up): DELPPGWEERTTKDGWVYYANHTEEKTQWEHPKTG

The target of assay [2] is T2, WW1–WW2 tandem module of WWOX (residues 16–91) (human, UniProt Q9NZC7 16-91).
T2 sequence (looked up): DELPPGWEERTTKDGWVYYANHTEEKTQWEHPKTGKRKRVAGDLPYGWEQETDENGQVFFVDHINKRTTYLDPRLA

Assay [3] deals with WW2W domain of WWOX (WW2 domain, residues 57–91, with the Y85W substitution) (human, UniProt Q9NZC7 57-91, Y85W).
WW2W domain of WWOX (WW2 domain, residues 57–91, with the Y85W substitution), sequence (Q9NZC7 57-91 Y85W): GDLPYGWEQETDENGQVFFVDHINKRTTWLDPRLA

B1: ErbB4_PY1 peptide (12-mer spanning the PY1 PPXY motif of the ICD of ErbB4) (peptide)
chain: FNIPPPIYTSRA
For the molecule B1, the values for the Kd in assay [1], in assay [2] and in assay [3] were 383 µM, 170 µM and 680 µM, respectively. Besides, the dH is -6.88 kcal/mol in assay [1], -7.25 kcal/mol in assay [2] and -4.74 kcal/mol in assay [3].

B2: ErbB4_PY2 peptide (12-mer spanning the PY2 PPXY motif of the ICD of ErbB4) (peptide)
chain: GHSPPPAYTPMS
With B2, the Kd in assay [1] came to 362 µM; in assay [2] it was 175 µM; in assay [3], 620 µM. In addition, the dH is -3.66 kcal/mol in assay [1], -4.88 kcal/mol in assay [2] and -8.08 kcal/mol in assay [3].
